Experimental data from paper doi:10.1101/2025.08.17.670156 (bioRxiv, 2025).
Changes are numbered by the printed parent chain. Names and notes keep the numbering of the source.

B1: double plant homeodomain fingers 3a (DPF3 isoform a), wild type (natural protein, human, UniProt Q92784-2 1-357, looked up)
chain: MATVIHNPLKALGDQFYKEAIEHCRSYNSRLCAERSVRLPFLDSQTGVAQNNCYIWMEKRHRGPGLAPGQLYTYPARCWRKKRRLHPPEDPKLRLLEIKPEVELPLKKDGFTSESTTLEALLRGEGVEKKVDAREEESIQEIQRVLENDENVEEGNEEEDLEEDIPKRKNRTRGRARGSAGGRRRHDAASQEDHDKPYVCDICGKRYKNRPGLSYHYAHTHLASEEGDEAQDQETRSPPNHRNENHRPQKGPDGTVIPNNYCDFCLGGSNMNKKSGRPEELVSCADCGRSAHLGGEGRKEKEAAAAARTTEDLFGSTSESDTSTFHGFDEDDLEEPRSCRGRRSGRGSPTADKKGSC
B2: DPF3a phosphomimetic S348E (natural protein, human, UniProt Q92784-2 1-357, looked up)
chain: B1 chain with S348E
B3: DPF3a phosphomimetic S138E (natural protein, human, UniProt Q92784-2 1-357, looked up)
chain: B1 chain with S138E

Target: the molecule itself
Experiment: deep-blue autofluorescence of amyloid fibrils

Binding result, binds:
B1
B2
B3
